Reference: article PMC5454392, “Selective BET bromodomain inhibition as an antifungal therapeutic strategy” (Nature Communications, 2017)
Numbered stars: 1 amine (or outer) side, 2 acyl side, 3 side chain; on linkers, the order of the positions; unused ones are H or OH. Square brackets hold non-standard residues; d marks the D form. Ends that are not written are not given here. Arg(Me2a) = CN(C)C(=N)NCCC[C@H](N)C(=O)O; Kac = CC(=O)NCCCC[C@H](N[*:1])C(=O)[*:2]; Lys(Me3) = C[N+](C)(C)CCCC[C@H](N)C(=O)O; Arg(Me2s) = CN=C(NC)NCCC[C@H](N)C(=O)O; pT = C[C@@H](OP(=O)(O)O)[C@H](N)C(=O)O; Lys(Me2) = CN(C)CCCC[C@H](N)C(=O)O; pS = N[C@@H](COP(=O)(O)O)C(=O)O; Cit = NC(=O)NCCC[C@H](N)C(=O)O; Lys(Me) = CNCCCC[C@H](N)C(=O)O; Me2a = not defined here; me2a = not defined here

B1: H3 26-45 (peptide)
chain: RKSAPATGGVKKPHRYRPG
modifications: not fully specified; histone peptide post-translational modifications (acetyl, methyl, phospho, citrulline) listed in columns 4-7 and embedded in the sequence text; N-terminus free or acetylated in column 8
B2: c-myc tag (peptide)
chain: EQKLISEEDLA
modifications: histone peptide post-translational modifications (acetyl, methyl, phospho, citrulline) listed in columns 4-7 and embedded in the sequence text; N-terminus free or acetylated in column 8

Assays:
[1] = molecular target: T1, CaBdf1 BD1 (GST-tagged, wild-type) (Candida albicans (strain SC5314 / ATCC …, UniProt Q5A4W8)); assay: histone peptide array (Active Motif MODified), 1 uM GST-tagged bromodomain, anti-GST detection, normalized mean intensity
T1 chain: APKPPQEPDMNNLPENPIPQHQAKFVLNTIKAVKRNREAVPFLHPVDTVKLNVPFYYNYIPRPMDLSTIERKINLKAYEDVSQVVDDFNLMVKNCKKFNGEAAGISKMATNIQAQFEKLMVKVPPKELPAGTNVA

[2] = molecular target: T2, CaBdf1 BD2 (GST-tagged, wild-type) (Candida albicans (strain SC5314 / ATCC …, UniProt Q5A4W8)); assay: as above
T2 chain: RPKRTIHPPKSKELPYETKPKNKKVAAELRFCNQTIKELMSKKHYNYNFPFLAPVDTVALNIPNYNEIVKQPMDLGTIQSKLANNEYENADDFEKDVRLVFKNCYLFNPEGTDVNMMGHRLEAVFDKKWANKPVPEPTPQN

Binder | binding score [1] | binding score [2]
SGRGKGGKGLGKGGAKRHR (S G R G K G G K G L G Kac G G A K R H R) | 0.033 | 0.00851
SGRGKGGKGLGKGGAKRHR (S G R G Kac G G K G L G K G G A K R H R) | 0.0185 | 0.0241
PDPAKSAPAPKKG[pS]K(Ac)KAVT | 0.0914 | 0.145
A[Arg(Me2s)]T[Kac]QTA[Arg(Me2s)][Lys(Me2)]STGGKAPRKQ | 0.00725 | 0.00666
A[Arg(Me2s)]T[Lys(Me2)]QTA[Arg(Me2a)][Lys(Me)]STGGKAPRKQ | 0.00544 | 0.0037
ARTKQTARKSTGGKAPRKQ (A R T K Q T A R Kme2 S pT G G K A P R K Q) | 0.00544 | 0.00185
SGRGK(Ac)QGGK(Ac)ARAK(Ac)AKSRSS | 0.0591 | 0.00888
SGRGKGGKGLGKGGAKRHR (S G Rme2a G K G G K G L G K G G A K R H R) | 0.00906 | 0.0215
PDPAK(Ac)SAPAPKK(Ac)GSK(Ac)KAVT | 0.0616 | 0.137
ARTKQTARKSTGGKAPRKQ (A Rme2s T Kme2 Q T A Rme2s Kme2 S T G G K A P R K Q) | 0.00435 | 0.00407
SGRGKGGKGLGKGGAKRHR (S G Rme2a G K G G Kac G L G K G G A K R H R) | 0.0218 | 0.0074
ARTKQTARKSTGGKAPRKQ (A R T K Q T A Rme2a Kme3 S pT G G K A P R K Q) | 0.00653 | 0.00555
SGRGKQGGK(Ac)ARAK(Ac)AKSRSS | 0.178 | 0.0481
[pS]GRGKQGGK(Ac)ARAKAKSRSS | 0.0174 | 0.0137
ARTKQTARKSTGGKAPRKQ (A R T K Q T A R Kac S T G G Kac A P R K Q) | 0.095 | 0.0211
PRKQLATKAAR(Me2a)K(Me3)[pS]APATGG (reading uncertain) | 0.00218 | 0.00296
A[Arg(Me2s)]TKQTARKSTGGKAPRKQ | 0.000725 | 0.0037
SGRGKGGKGLGKGGAKRHR (S G Rme2s G Kac G G K G L G K G G A K R H R) | 0.0225 | 0.00555
ARTKQTA[Arg(Me2s)][Lys(Me)][pS]TGGKAPRKQ | 0.00508 | 0.00259
ARTK(Ac)QTARKSTGGKAPRKQ | 0.00363 | 0.00222
AR[pT]KQTARKSTGGKAPRKQ | 0 | 0.00259
PRKQLATKAARKSAPATGG (P R K Q L A T K A A R Kme2 S A P A T G G) | 0.00254 | 0.00666
ARTKQTARKSTGGKAPRKQ (A Rme2a T Kme1 Q T A Rme2a Kme1 S T G G K A P R K Q) | 0.00363 | 0.00259
AR(me2a)TK(me2)QTAR(me2a)K(Me)STGGKAPRKQ (reading uncertain) | 0.00363 | 0.00629
[pS]GRGK(Ac)QGGK(Ac)ARAKAKSRSS | 0.0381 | 0.00925

Binder | binding score [1] | binding score [2]
B1 | 0.00508 | 0.00296
ARTKQTARKSTGGKAPRKQ (A R T Kac Q T A Rme2a Kme1 S T G G K A P R K Q) | 0.00834 | 0.00555
ARTKQTARKSTGGKAPRKQ (A R T K Q T A Rme2a Kme3 pS pT G G K A P R K Q) | 0.00326 | 0.0037
A[Arg(Me2a)]T[Kac]QTAR[Kac]STGGKAPRKQ | 0.046 | 0.00851
SGRGKGGKGLGKGGAKRHR (pS G Rme2s G Kac G G K G L G K G G A K R H R) | 0.0131 | 0.00555
SGRGKGGKGLGKGGAKRHR (S G R G Kac G G Kac G L G Kac G G A Kac R H R) | 0.471 | 0.902
PRKQLATKAAR(Me2s)K[pS]APATGG | 0.00181 | 0.00444
PRKQLATKAA[Arg(Me2s)]K(Ac)[pS]APATGG | 0.00145 | 0.00629
ARTKQTARKSTGGKAPRKQ (A Rme2s T Kac Q T A Rme2s Kme3 S T G G K A P R K Q) | 0.00834 | 0.00555
ARTKQTARKSTGGKAPRKQ (A R T K Q T A Rme2s Kme3 pS T G G K A P R K Q) | 0.00508 | 0.00333
SGRGKGGKGLGKGGAKRHR (S G R G K G G Kac G L G K G G A K R H R) | 0.0344 | 0.027
ARTKQTARKSTGGKAPRKQ (A R T K Q T A Rme2s K S T G G K A P R K Q) | 0.00218 | 0.00148
ARTKQTARKSTGGKAPRKQ (A R T Kac Q T A Rme2s Kme2 S T G G K A P R K Q) | 0.00363 | 0.00296
AR(me2s)TK(Me)QTAR(me2s)K(me3)STGGKAPRKQ | 0.0029 | 0.00629
ARTK(Me)QTAR(me2s)K(me3)STGGKAPRKQ | 0.00435 | 0.00407
SGRGKGGKGLGKGGAKRHR (pS G Rme2a G Kac G G Kac G L G K G G A K R H R) | 0.0312 | 0.0396
SGRGKGGKGLGKGGAKRHR (S G R G Kac G G Kac G L G K G G A K R H R) | 0.0294 | 0.0326
ARTKQTA[Arg(Me2a)][Lys(Me)]S[pT]GGKAPRKQ | 0.00471 | 0.00259
ARTKQTARKSTGGKAPRKQ (A R T K Q T A Rme2a Kme3 pS T G G K A P R K Q) | 0.00254 | 0.00333
RKSAPATGGVKKPHRYRPG (R K S A P A T G G V Kme1 K P H R Y R P G) | 0.00616 | 0.00481
PRKQLATKAARK(Me)SAPATGG | 0.00798 | 0.00333
SGRGKGGKGLGKGGAKRHR (S G R G K G G K G L G Kac G G A Kac R H R) | 0.0743 | 0.0248
PDPAK(Ac)SAPAPKK(Ac)GSKKAVT | 0.017 | 0.00555
B2 | 1.01 | 1
K[Lys(Me)][Lys(Me2)][Lys(Me3)]K(Ac)R[Arg(Me2s)]R[Arg(Me2a)]R[Cit]K[Lys(Me)]K(Ac)[Lys(Me3)]RK [background 01] | 0.00906 | 0.00629
